Patent publication US20240343823A1 (Ablynx, published 2024)

Molecular target: T1, human GPC3 on tumor cell lines (HepG2, Huh-7, NCI-H661, MKN-45, NCI-H23, BxPC-3, NCI-H292) (human, UniProt P51654 25-554)
T1 construct: Endogenous GPC3 of human cancer cell lines; also called GPC3 on HepG2; GPC3 on Huh-7
Test: pHAb internalization assay on Huh-7 cells, flow cytometry (BD FACSArray, yellow laser); indirect readout that needs binding and uptake; concentration not given
Protocol: The assay was read on a BD FACSArray with a yellow laser (pHAb: excitation maximum at 532 nm, emission maximum at 560 nm). The internalization rate was determined by quantifying the internalization at 37° C. at different timepoints (0.5 h, 3 h, 24 h and 48 h) compared to 4° C. at 0.5 h (Table 10, FIG. 8A).

B1: A022600373 (bispecific antibody)
chain: DVQLVESGGGVVQPGGSLRLSCVASGYVHKINFYGWYRQAPGKEREKVAHISIGDQTDYADSAKGRFTISRDESKNTVYLQMNSLRPEDTAAYYCRALSRIWPYDYWGQGTLVTVSSGGGGSGGGGSGGGGSGGGGSEVQLVESGGGVVQPGGSLRLSCAASGFTFRSFGMSWVRQAPGKGPEWVSSISGSGSDTLYADSVKGRFTISRDNSKNTLYLQMNSLRPEDTALYYCTIGGSLSRSSQGTLVTVSSGGC
modifications: pHAb dye on the C-terminal GGC (degree of labeling 1)
notes: also called TCE01-20GS-ALB23002-GGC
binding result: no binding
